Where a chain is given by its changes, count along the chain named.
Legend:
[1] = target: T1, canine CD20 cyclic (oxidised, disulphide-bonded) peptide SEQ ID NO:2 (canine, disulphide bond between the two cysteine residues (corresponding to positions 167 and 183); N-terminal biotin in the streptavidin-plate assays); test: ELISA, purified recombinant antibody on cyclic CD20 peptide
T1 construct: Chemically synthesised and oxidised; also called C20; caCD20 peptide
T1 peptide: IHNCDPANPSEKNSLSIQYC
Source text: (§1) The RA2 and RF2 variable heavy and light chain sequences (SEQ ID NO:23-26) were rebuilt as IgG2a/kappa antibodies by oligonucleotide-based gene synthesis, cloned into pcDNA3.3 vectors and co-expressed in appropriate pairs in CHO cells. The supernatant expressed antibodies were purified by Protein A chromatography and tested for binding by CD20 peptide ELISA (FIG. 11). Both purified recombinant forms of mouse RA2 and RF2 bound strongly to cyclic canine and feline CD20 peptides, and also to mouse and human CD20 peptides (the binding of RA2 to human CD20 peptide was more pronounced than with the corresponding hybridoma supernatant in FIG. 9).

[2] = target: T2, human CD20 cyclic (oxidised) peptide SEQ ID NO:3 (human, disulphide bond between the two cysteine residues; biotinylated); test: as above
T2 construct: also called H20; human CD20 cyclic peptide
T2 peptide: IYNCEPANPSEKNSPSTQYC
Source text: as §1

[3] = target: T3, murine CD20 cyclic (oxidised) peptide SEQ ID NO:6 (murine, disulphide bond between the two cysteine residues; biotinylated); test: as above
T3 construct: also called M20; mouse CD20 peptide
T3 peptide: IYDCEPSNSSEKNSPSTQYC
Source text: as §1

[4] = target: T4, feline CD20 cyclised peptide SEQ ID NO:4 (feline, cyclised by a disulphide bond between the two cysteine residues); test: as above
T4 construct: also called feline CD20 peptide
T4 peptide: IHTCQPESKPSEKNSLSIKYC
Source text: as §1

[5] = target: T1, canine CD20 cyclic (oxidised, …); test: ELISA, purified antibody on cyclic CD20 peptide
Description: (§2) The purified antibodies shown in FIG. 15 were tested for binding to cyclic CD20 peptides from different species by ELISA as above.

[6] = target: T2, human CD20 cyclic (oxidised) peptide …; test: ELISA, purified antibody on cyclic CD20 peptide
Description: as §2

[7] = target: T3, murine CD20 cyclic (oxidised) peptide …; test: ELISA, purified antibody on cyclic CD20 peptide
Description: as §2

[8] = target: T4, feline CD20 cyclised peptide SEQ ID NO:4; test: ELISA, purified antibody on cyclic CD20 peptide
Description: as §2

[9] = target: T2, human CD20 cyclic (oxidised) peptide …; test: ELISA on cyclised CD20 peptide
[10] = target: T3, murine CD20 cyclic (oxidised) peptide …; test: ELISA on cyclised CD20 peptide
[11] = target: T4, feline CD20 cyclised peptide SEQ ID NO:4; test: ELISA on cyclised CD20 peptide
[12] = target: T1, canine CD20 cyclic (oxidised, …); test: ELISA, hybridoma antibody on cyclic CD20 peptide
Source text: (§3) Using a combination of cyclic human (SEQ ID NO:3) and canine (SEQ ID NO:2) CD20 peptides, monoclonal antibodies that would bind both human and canine peptides were screened for using conventional hybridoma screening of mice previously immunised with the cyclic canine CD20 peptide of FIG. 1, coupled to diphtheria toxoid at the amino terminus as a source of T-cell help. Two antibody hybridomas were selected, RA2 and RF2 and tested for binding to these as well as to murine (SEQ ID NO:6) and feline (SEQ ID NO:4) CD20 peptides. RA2 and RF2 bound strongly to canine CD20 and RF2 bound strongly to human CD20 peptide whereas RA2 binds more weakly. Unexpectedly RA2 and RF2 bound strongly to feline and also murine CD20 peptides.

[13] = target: T2, human CD20 cyclic (oxidised) peptide …; test: ELISA, hybridoma antibody on cyclic CD20 peptide
Source text: as §3

[14] = target: T3, murine CD20 cyclic (oxidised) peptide …; test: ELISA, hybridoma antibody on cyclic CD20 peptide
Source text: as §3

[15] = target: T4, feline CD20 cyclised peptide SEQ ID NO:4; test: ELISA, hybridoma antibody on cyclic CD20 peptide
Source text: as §3

Measured: binding result

B1: recombinant mouse RA2 (IgG2a/kappa) (antibody)
heavy: QVQLKQSGPGLVPPSQSLSITCTVSGFSLTNYGVHWVRQSPGKGLEWLGVIWSGGTTDYNAAFISRLSISKDNSKSQVFFKMNSLQADDTAIYYCARGPRKFYYYGMDYWGQGTSVTVSSAKTTAPSVYPLAPVCGDTTGSSVTLGCLVKGYFPEPVTLTWNSGSLSSGVHTFPAVLQSDLYTLSSSVTVTSSTWPSQSITCNVAHPASSTKVDKKIEPRGPTIKPCPPCKCPAPNLLGGPSVFIFPPKIKDVLMISLSPIVTCVVVDVSEDDPDVQISWFVNNVEVHTAQTQTHREDYNSTLRVVSALPIQHQDWMSGKEFKCKVNNKDLPAPIERTISKPKGSVRAPQVYVLPPPEEEMTKKQVTLTCMVTDFMPEDIYVEWTNNGKTELNYKNTEPVLDSDGSYFMYSKLRVEKKNWVERNSYSCSVVHEGLHNHHTTKSFSRTPGK
light: DVLMTQTPLSLPVSLGDQASISCRSSQSIVHSNGNTYLEWYLQKPGQSPKLLIYKVSNRFSGVPDRFSGSGSGTDFTLKISRVEAGDLGVYYCFQGLHVPLTFGAGTRLELKRADAAPTVSIFPPSSEQLTSGGASVVCFLNNFYPKDINVKWKIDGSERQNGVLNSWTDQDSKDSTYSMSSTLTLTKDEYERHNSYTCEATHKTSTSPIVKSFNRNEC
notes: also called muRA2
binds: [1] | [2] | [3] | [4]

B2: recombinant mouse RF2 (IgG2a/kappa) (antibody)
heavy: B1 heavy with V24I, N31S, K43W, T56S, T57I, F80I, Y105F
light: B1 light with L3V, S28N, L38V, G86E, L97S, R108K
notes: also called muRF2; mouse IgG2a variant of RF2
binds: [1] | [2] | [3] | [4]

B3: caninised RA2, HCB isotype (antibody)
heavy: EVQLVQSGGGLVKPTESLTISCVVSGFSLTNYGVHWVRQSPGKGLEWLGVIWSGGTTDYNAAFISRLSISKDNSKSTVFLRMNSLRADDTAIYYCARGPRKFYYYGMDYWGQGTSVTVSSASTTAPSVFPLAPSCGSTSGSTVALACLVSGYFPEPVTVSWNSGSLTSGVHTFPSVLQSSGLYSLSSMVTVPSSRWPSETFTCNVAHPASKTKVDKPVPKRENGRVPRPPDCPKCPAPEMLGGPSVFIFPPKPKDTLLIARTPEVTCVVVDLDPEDPEVQISWFVDGKQMQTAKTQPREEQFNGTYRVVSVLPIGHQDWLKGKQFTCKVNNKALPSPIERTISKARGQAHQPSVYVLPPSREELSKNTVSLTCLIKDFFPPDIDVEWQSNGQQEPESKYRTTPPQLDEDGSYFLYSKLSVDKSRWQRGDTFICAVMHEALHNHYTQESLSHSPGK
light: DIVMTQTPLSLSVSQEEEASISCRSSQSIVHSNGNTYLEWYLQKPGQSPKLLIYKVSNRFSGVPDRFSGSGSGTDFTLKISRVEAGDAGVYYCFQGLHVPLTFGAGTKLELKRNDAQPAVYLFQPSPDQLHTGSASVVCLLNSFYPKDINVKWKVDGVIQDTGIQESVTEQDKDSTYSLSSTLTMSSTEYLSHELYSCEITHKSLPSTLIKSFQRSECQRVD
notes: also called caRA2-B
binds: [5] | [6] | [7] | [8]

B4: caninised RA2, HCC isotype (antibody)
heavy: EVQLVQSGGGLVKPTESLTISCVVSGFSLTNYGVHWVRQSPGKGLEWLGVIWSGGTTDYNAAFISRLSISKDNSKSTVFLRMNSLRADDTAIYYCARGPRKFYYYGMDYWGQGTSVTVSSASTTAPSVFPLAPSCGSQSGSTVALACLVSGYIPEPVTVSWNSVSLTSGVHTFPSVLQSSGLYSLSSMVTVPSSRWPSETFTCNVAHPATNTKVDKPVAKECECKCNCNNCPCPGCGLLGGPSVFIFPPKPKDILVTARTPTVTCVVVDLDPENPEVQISWFVDSKQVQTANTQPREEQSNGTYRVVSVLPIGHQDWLSGKQFKCKVNNKALPSPIEEIISKTPGQAHQPNVYVLPPSRDEMSKNTVTLTCLVKDFFPPEIDVEWQSNGQQEPESKYRMTPPQLDEDGSYFLYSKLSVDKSRWQRGDTFICAVMHEALHNHYTQISLSHSPGK
light: B3 light
notes: See note of m19; also called caRA2-C
binds: [5] | [6] | [7] | [8]

B5: chimeric mouse-canine RA2, HCB isotype (antibody)
heavy: QVQLKQSGPGLVPPSQSLSITCTVSGFSLTNYGVHWVRQSPGKGLEWLGVIWSGGTTDYNAAFISRLSISKDNSKSQVFFKMNSLQADDTAIYYCARGPRKFYYYGMDYWGQGTSVTVSSASTTAPSVFPLAPSCGSTSGSTVALACLVSGYFPEPVTVSWNSGSLTSGVHTFPSVLQSSGLYSLSSMVTVPSSRWPSETFTCNVAHPASKTKVDKPVPKRENGRVPRPPDCPKCPAPEMLGGPSVFIFPPKPKDTLLIARTPEVTCVVVDLDPEDPEVQISWFVDGKQMQTAKTQPREEQFNGTYRVVSVLPIGHQDWLKGKQFTCKVNNKALPSPIERTISKARGQAHQPSVYVLPPSREELSKNTVSLTCLIKDFFPPDIDVEWQSNGQQEPESKYRTTPPQLDEDGSYFLYSKLSVDKSRWQRGDTFICAVMHEALHNHYTQESLSHSPGK
light: B3 light with I2V, V3L, S12P, Q15L, E16G, E17D, E18Q, A88L, K108R
notes: also called chiRA2-B; chimeric RA2
binds: [5] | [6] | [7] | [8]

B6: caninised RF2, HCB isotype (antibody)
heavy: B3 heavy with V24I, N31S, T56S, T57I, L80I, Y105F
light: B3 light with S28N, L38V, G86E, L97S
notes: also called caRF2-B
binds: [9] | [10] | [11] | [5]

B7: chimeric mouse-canine RF2, HCB isotype (antibody)
heavy: B5 heavy with V24I, N31S, K43W, T56S, T57I, F80I, Y105F
light: DVVMTQTPLSLPVSLGDQASISCRSSQNIVHSNGNTYVEWYLQKPGQSPKLLIYKVSNRFSGVPDRFSGSGSGTDFTLKISRVEAEDLGVYYCFQGSHVPLTFGAGTKLELKRNDAQPAVYLFQPSPDQLHTGSASVVCLLNSFYPKDINVKWKVDGVIQDTGIQESVTEQDKDSTYSLSSTLTMSSTEYLSHELYSCEITHKSLPSTLIKSFQRSECQRVD
notes: also called chiRF2-B; chimeric RF2
binds: [5] | [6] | [7] | [8]

B8: RA2 murine monoclonal antibody (hybridoma) (antibody, V domains shown)
VH: QVQLKQSGPGLVPPSQSLSITCTVSGFSLTNYGVHWVRQSPGKGLEWLGVIWSGGTTDYNAAFISRLSISKDNSKSQVFFKMNSLQADDTAIYYCARGPRKFYYYGMDYWGQGTSVTVSS
VL: DVLMTQTPLSLPVSLGDQASISCRSSQSIVHSNGNTYLEWYLQKPGQSPKLLIYKVSNRFSGVPDRFSGSGSGTDFTLKISRVEAGDLGVYYCFQGLHVPLTFGAGTRLELK
notes: Hybridoma supernatant; also called muRA2
binds: [12] | [13] | [14] | [15]

B9: RF2 murine monoclonal antibody (hybridoma) (antibody, V domains shown)
VH: B8 VH with V24I, N31S, K43W, T56S, T57I, F80I, Y105F
VL: B8 VL with L3V, S28N, L38V, G86E, L97S, R108K
notes: Hybridoma supernatant; also called muRF2
binds: [12] | [13] | [14] | [15]
